Test results taken from patent publication US20050100989A1 (MERCK SERONO, published 2005).
Where “and” joins values, the source holds several entries; their conditions need not be identical. Equal values may be shown once.

T1: human FSH receptor (human, UniProt P23945 18-695)
T1 sequence (looked up): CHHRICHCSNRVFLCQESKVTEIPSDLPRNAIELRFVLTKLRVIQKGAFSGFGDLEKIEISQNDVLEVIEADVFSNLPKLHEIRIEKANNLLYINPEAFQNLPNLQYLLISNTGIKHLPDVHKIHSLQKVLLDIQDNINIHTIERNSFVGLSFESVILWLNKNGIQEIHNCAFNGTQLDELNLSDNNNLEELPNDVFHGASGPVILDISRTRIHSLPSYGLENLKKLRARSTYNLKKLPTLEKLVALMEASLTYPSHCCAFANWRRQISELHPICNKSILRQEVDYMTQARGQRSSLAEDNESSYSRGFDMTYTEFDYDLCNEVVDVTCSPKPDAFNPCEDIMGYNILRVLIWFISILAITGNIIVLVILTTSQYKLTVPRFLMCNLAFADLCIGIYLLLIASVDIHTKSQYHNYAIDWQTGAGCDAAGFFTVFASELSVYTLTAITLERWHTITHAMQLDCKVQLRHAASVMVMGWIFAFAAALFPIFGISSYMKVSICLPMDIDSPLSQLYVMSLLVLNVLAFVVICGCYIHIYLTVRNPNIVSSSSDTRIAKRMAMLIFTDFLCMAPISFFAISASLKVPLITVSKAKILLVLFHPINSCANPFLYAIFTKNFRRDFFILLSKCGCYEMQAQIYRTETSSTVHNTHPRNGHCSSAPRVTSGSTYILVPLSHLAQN


Legend:
human FSH receptor [1] = target: T1, human FSH receptor; assay: cell-based or functional assay
human FSH receptor [2] = target: T1, human FSH receptor; assay: competition with 125I radiolabelled FSH on membrane preparations with human FSH receptor
human FSH receptor [3] = target: T1, human FSH receptor; assay: competition with 0.4 nM 125I-FSH on CHO membranes bearing human FSHR, filtration, single site model
Procedure: Large batches of CHO cells line which recombinantly express human FSH receptor or human LH receptor were grown and disrupted by nitrogen cavitation (20 min equilibration to 900 psi, followed by rapid pressure release) in 0.025 M Tris pH 7.4 containing 0.25 M sucrose, 10 mM MgCl₂, 1 mM EDTA and one part per thousand Sigma Protease Inhibitor cocktail (p8350). Following preliminary clarification (10 min×1000×g at 4° C.) the membranes fraction was pelletted (60 min×100,000×g×4° C.) by ultracentrifugation. The membranes fraction was resuspended in binding buffer (0.01 M Tris pH 7.4 containing 5 mM MgCl₂), protein concentration estimated by Bradford (BioRad) protein assay and stored frozen at −80° C. for future use. Typically 15 μg of membrane protein appropriately bearing FSHR or LHR was analyzed, per well, in competition assays.
Radioligand binding was evaluated in 96 well plates, 100 μl/sample well. The assay buffer was 0.01 M Tris pH 7.4 containing 5 mM MgCl₂ and 0.1% BSA and 0.3 nM ¹²⁵I-hCG (for LHR) or 0.4 nM ¹²⁵I-FSH (for FSHR). […] Nonspecific binding was determined in the presence of 500 nM unlabeled hCG or FSH. Binding was allowed to equilibrate for 90 min at 37° C. with shaking. […] Bound radioactivity was measured in an HP Cobra II gamma counter using a pre-programmed detection window specific for ¹²⁵I emission. Data were analyzed using a single site model and Graph Pad Prizm software.

human FSH receptor [4] = target: T1, human FSH receptor; assay: cell-based or functional assay; remark: listed apart in the source

Row | EC50 (FSHR-coupled cAMP production) (human FSH receptor [1]) [nM] | Ki (human FSH receptor [2]) [nM] | Ki (human FSH receptor [3]) | FSHR EC50 (cAMP production) (human FSH receptor [4]) | Binder
1 | 0.039 | 0.86 | – | – | FSH single β-subunit mutant β E55N/V57T (mutant β-subunit expressed together with the complementary wild type α-subunit) (ligand, N-linked glycosylation; extra consensus site at N55 (hyperglycosylated by shift of apparent molecular weight); N-linked glycosylation (glycoprotein made in CHO cells), also called βE55/V57T) chain 1: not shown chain 2: NSCELTNITIAIEKEECRFCISINTTWCAGYCYTRDLVYKDPARPKIQKTCTFKNLTYETVRVPGCAHHADSLYTYPVATQCHCGKCDSDSTDCTVRGLGPSYCSFGEMKE
2 | – | – | 1.9 nM and 2.3 nM | 0.0612 nM and 0.0209 nM | GM-1 (FSH double glycosylation mutant: α-subunit H83N and β-subunit E55N/V57T) (ligand, N-linked glycosylation (glycoprotein made in CHO-Dukx cells), Heterodimer; also called GM-1 Lot 1; GM-1 Lot 2) chain 1: not shown chain 2: NSCELTNITIAIEKEECRFCISINTTWCAGYCYTRDLVYKDPARPKIQKTCTFKNLTYETVRVPGCAHHADSLYTYPVATQCHCGKCDSDSTDCTVRGLGPSYCSFGEMKE
